Measurements published in patent US20250084169A1 (published 2025).
Read-outs that look alike come from different tables or passages of the source.

T1: recombinant human CD19 (human, UniProt P15391 20-291)
T1 sequence (looked up): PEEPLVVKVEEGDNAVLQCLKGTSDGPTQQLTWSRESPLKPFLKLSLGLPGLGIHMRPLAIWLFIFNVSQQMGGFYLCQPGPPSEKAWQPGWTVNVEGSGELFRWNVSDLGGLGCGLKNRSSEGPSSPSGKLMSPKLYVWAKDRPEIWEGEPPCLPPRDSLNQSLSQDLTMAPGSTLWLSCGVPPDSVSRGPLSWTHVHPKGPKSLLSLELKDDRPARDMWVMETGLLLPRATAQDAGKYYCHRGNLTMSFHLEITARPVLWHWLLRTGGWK

T2: cynomolgus monkey CD19 on cells (cynomolgus monkey, UniProt A0A2K5W8L9 20-557)
T2 sequence: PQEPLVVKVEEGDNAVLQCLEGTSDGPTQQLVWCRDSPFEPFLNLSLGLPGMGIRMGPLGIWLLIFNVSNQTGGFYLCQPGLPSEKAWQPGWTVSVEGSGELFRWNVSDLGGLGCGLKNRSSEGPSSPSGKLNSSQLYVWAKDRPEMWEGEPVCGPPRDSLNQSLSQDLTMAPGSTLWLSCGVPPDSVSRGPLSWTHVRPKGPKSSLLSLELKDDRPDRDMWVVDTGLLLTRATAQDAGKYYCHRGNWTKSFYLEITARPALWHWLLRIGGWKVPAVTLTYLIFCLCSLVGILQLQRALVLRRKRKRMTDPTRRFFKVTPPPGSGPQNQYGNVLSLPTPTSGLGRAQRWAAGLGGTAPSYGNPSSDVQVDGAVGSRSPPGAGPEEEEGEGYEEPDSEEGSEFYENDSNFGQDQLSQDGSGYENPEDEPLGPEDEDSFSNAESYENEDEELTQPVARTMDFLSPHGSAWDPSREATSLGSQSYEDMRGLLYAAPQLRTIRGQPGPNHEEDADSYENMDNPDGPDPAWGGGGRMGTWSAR

T3: human CD19 on cells (human, UniProt P15391 20-556)
T3 sequence (looked up): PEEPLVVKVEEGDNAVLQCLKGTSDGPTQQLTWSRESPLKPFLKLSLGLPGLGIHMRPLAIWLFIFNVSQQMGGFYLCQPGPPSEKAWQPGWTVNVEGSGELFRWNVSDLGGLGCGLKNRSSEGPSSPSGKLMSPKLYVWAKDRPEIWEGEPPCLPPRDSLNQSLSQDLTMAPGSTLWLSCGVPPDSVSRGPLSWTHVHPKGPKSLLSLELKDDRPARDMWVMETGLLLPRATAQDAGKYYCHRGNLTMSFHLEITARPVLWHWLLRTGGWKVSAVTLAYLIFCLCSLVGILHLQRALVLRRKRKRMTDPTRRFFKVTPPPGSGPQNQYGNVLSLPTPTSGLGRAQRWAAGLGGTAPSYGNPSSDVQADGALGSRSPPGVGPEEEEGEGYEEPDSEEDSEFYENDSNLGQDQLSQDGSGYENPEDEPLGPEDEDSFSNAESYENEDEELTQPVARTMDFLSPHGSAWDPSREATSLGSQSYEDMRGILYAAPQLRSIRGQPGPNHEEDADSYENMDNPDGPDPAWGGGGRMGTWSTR

T4: recombinant cynomolgus monkey CD19 (cynomolgus monkey, UniProt A0A2K5W8L9 20-292)
T4 sequence: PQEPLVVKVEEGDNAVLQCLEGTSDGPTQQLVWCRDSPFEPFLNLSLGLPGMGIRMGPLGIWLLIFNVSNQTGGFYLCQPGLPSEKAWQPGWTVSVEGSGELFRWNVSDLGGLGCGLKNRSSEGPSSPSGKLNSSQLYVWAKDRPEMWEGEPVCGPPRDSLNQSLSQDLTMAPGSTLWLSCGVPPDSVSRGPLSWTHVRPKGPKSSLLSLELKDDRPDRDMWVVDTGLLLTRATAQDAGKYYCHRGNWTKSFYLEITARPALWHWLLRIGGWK

T5: recombinant human Fc gamma RIIb/c (CD32b/c) (human, UniProt P31994 46-217)
T5 sequence (looked up): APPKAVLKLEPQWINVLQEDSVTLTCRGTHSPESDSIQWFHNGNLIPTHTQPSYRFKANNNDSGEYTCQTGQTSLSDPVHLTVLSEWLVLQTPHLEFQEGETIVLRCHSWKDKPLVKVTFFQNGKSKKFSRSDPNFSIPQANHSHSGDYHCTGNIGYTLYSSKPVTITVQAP

T6: recombinant human Fc gamma RIIa (CD32a) 131R (human, UniProt P12318 36-218)
T6 sequence (looked up): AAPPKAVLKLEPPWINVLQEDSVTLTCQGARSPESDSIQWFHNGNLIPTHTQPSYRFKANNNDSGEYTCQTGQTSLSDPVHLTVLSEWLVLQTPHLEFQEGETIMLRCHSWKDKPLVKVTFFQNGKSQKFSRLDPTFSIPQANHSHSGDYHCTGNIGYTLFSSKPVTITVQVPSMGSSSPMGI

T7: recombinant human Fc gamma RIIa (CD32a) 131H (human, UniProt P12318 36-218)
T7 sequence (looked up): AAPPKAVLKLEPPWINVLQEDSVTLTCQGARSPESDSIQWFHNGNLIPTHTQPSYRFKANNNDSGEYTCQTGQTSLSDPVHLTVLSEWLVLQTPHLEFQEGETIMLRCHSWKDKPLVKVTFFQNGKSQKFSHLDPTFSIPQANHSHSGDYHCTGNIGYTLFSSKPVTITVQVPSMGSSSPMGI

T8: recombinant human full-length CD20 (human, UniProt P11836 1-297)
T8 sequence (looked up): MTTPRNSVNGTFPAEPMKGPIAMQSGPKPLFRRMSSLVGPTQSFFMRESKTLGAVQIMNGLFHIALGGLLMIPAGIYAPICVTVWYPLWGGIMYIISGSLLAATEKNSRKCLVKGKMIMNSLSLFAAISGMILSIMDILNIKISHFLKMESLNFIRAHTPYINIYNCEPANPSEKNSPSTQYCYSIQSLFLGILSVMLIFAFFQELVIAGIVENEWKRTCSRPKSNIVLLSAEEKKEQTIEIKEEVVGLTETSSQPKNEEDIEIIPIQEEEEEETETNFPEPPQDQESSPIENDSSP

T9: cynomolgus monkey CD20 on cells (cynomolgus monkey, UniProt M4ZHZ6 1-297)
T9 sequence: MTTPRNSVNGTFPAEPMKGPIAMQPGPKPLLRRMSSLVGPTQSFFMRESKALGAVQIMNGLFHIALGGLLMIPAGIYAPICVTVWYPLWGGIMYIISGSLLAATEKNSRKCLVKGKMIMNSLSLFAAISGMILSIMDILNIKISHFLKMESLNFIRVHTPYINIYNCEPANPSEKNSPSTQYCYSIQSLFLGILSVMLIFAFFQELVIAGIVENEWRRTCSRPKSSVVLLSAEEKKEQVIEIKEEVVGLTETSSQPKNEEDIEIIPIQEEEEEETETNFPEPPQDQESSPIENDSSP

T10: recombinant cynomolgus monkey CD20 (cynomolgus monkey, UniProt M4ZHZ6 1-297)
T10 sequence: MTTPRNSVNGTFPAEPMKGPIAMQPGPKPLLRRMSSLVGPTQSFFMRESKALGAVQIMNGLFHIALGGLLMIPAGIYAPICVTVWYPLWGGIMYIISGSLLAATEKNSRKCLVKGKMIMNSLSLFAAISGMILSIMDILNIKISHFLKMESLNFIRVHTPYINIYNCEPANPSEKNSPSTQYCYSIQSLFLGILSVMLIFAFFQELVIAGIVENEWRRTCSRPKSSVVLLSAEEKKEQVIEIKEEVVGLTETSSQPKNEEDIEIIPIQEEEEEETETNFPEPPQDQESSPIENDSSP

T11: CD20 Lipoparticles (Homo sapiens (Human), UniProt P11836 1-297)
T11 sequence: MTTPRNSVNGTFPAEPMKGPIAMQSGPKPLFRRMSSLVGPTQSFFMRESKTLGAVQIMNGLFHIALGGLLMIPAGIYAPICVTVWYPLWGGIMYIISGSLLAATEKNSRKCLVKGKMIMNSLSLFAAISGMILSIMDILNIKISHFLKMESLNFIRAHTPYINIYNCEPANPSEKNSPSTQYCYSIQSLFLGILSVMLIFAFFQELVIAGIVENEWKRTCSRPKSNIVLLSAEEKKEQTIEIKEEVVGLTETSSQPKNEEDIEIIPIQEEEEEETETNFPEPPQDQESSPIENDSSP


What was measured:
recombinant human CD19 = molecular target: T1, recombinant human CD19
[1] = molecular target: T12, recombinant human Fc gamma RIIIa (CD16a) 158F (human, UniProt P08637 17-208)
[2] = molecular target: T13, recombinant human Fc gamma RIIIb (CD16b) (human, UniProt O75015 17-200)
[3] = molecular target: T14, recombinant human Fc gamma RIIIa (CD16a) 158V (human, UniProt P08637 17-208)
[4] = molecular target: T15, cynomolgus monkey Fc gamma receptor CD16 (cynomolgus monkey, UniProt Q8SPW2 17-208)
[5] = molecular target: T16, cynomolgus monkey Fc gamma receptor CD32a (cynomolgus monkey)
[6] = molecular target: T17, cynomolgus monkey Fc gamma receptor CD32b (cynomolgus monkey)
[7] = molecular target: T2, cynomolgus monkey CD19 on cells
human CD19 on cells = molecular target: T3, human CD19 on cells
[8] = molecular target: T4, recombinant cynomolgus monkey CD19
[9] = molecular target: T5, recombinant human Fc gamma RIIb/c …
[10] = molecular target: T6, recombinant human Fc gamma RIIa (CD32a) …
[11] = molecular target: T18, recombinant human Fc gamma RI (CD64) (human, UniProt P12314 16-288)
[12] = molecular target: T12, recombinant human Fc gamma RIIIa …; remark: listed apart in the source
[13] = molecular target: T13, recombinant human Fc gamma RIIIb (CD16b); remark: listed apart in the source
[14] = molecular target: T5, recombinant human Fc gamma RIIb/c …; remark: listed apart in the source
[15] = molecular target: T7, recombinant human Fc gamma RIIa (CD32a) …
[16] = molecular target: T6, recombinant human Fc gamma RIIa (CD32a) …; remark: listed apart in the source
[17] = molecular target: T14, recombinant human Fc gamma RIIIa …; remark: listed apart in the source
[18] = molecular target: T18, recombinant human Fc gamma RI (CD64); remark: listed apart in the source
[19] = molecular target: T15, cynomolgus monkey Fc gamma receptor CD16; remark: listed apart in the source
[20] = molecular target: T16, cynomolgus monkey Fc gamma receptor …; remark: listed apart in the source
[21] = molecular target: T17, cynomolgus monkey Fc gamma receptor …; remark: listed apart in the source
[22] = molecular target: T8, recombinant human full-length CD20
[23] = molecular target: T9, cynomolgus monkey CD20 on cells
[24] = molecular target: T10, recombinant cynomolgus monkey CD20
CD20 Lipoparticles = molecular target: T11, CD20 Lipoparticles
[25] = molecular target: T13, recombinant human Fc gamma RIIIb (CD16b); remark: listed apart in the source
[26] = molecular target: T5, recombinant human Fc gamma RIIb/c …; remark: listed apart in the source
[27] = molecular target: T7, recombinant human Fc gamma RIIa (CD32a) …; remark: listed apart in the source
[28] = molecular target: T6, recombinant human Fc gamma RIIa (CD32a) …; remark: listed apart in the source
[29] = molecular target: T14, recombinant human Fc gamma RIIIa …; remark: listed apart in the source
[30] = molecular target: T18, recombinant human Fc gamma RI (CD64); remark: listed apart in the source

T14 sequence (P08637 17-208 F176V limits assumed): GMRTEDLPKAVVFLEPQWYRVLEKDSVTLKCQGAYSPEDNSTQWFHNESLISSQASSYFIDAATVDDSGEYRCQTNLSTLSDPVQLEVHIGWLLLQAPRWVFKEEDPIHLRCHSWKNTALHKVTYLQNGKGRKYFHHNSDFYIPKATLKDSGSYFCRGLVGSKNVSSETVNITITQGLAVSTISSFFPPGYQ
T13 sequence (O75015 17-200 limits assumed): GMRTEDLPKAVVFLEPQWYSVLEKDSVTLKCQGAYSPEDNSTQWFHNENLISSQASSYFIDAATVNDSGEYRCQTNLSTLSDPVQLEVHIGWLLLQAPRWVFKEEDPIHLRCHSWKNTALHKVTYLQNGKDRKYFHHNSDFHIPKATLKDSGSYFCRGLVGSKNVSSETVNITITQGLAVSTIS
T15 sequence (Q8SPW2 17-208 limits assumed): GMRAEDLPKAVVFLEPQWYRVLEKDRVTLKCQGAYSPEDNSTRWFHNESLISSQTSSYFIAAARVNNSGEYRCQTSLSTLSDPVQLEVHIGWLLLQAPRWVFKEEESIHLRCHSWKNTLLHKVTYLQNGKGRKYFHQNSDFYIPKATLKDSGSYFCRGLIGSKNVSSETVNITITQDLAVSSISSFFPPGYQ
T18 sequence (P12314 16-288 limits assumed): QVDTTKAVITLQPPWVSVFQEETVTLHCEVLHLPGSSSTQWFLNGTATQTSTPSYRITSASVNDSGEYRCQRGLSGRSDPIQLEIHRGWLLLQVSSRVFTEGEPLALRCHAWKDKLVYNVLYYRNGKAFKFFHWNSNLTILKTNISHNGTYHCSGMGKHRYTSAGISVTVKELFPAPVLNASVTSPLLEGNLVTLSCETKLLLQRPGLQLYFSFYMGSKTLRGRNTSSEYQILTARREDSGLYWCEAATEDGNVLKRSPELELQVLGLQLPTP
T12 sequence (P08637 17-208 limits assumed): as the sequence (P08637 17-208 F176V limits assumed) above, with V160F counted along it

Binder | Kd [1] | Kd [2] | Kd [3] | Kd [4] | Kd [9] | Kd [10] | Kd [11] | Kd [12] | Kd [13] | Kd [14] | Kd [15] | Kd [16] | Kd [17] | Kd [18] | Kd [19] | other results
Tafasitamab-cxix (research grade biosimilar) (antibody, human IgG1, kappa) heavy: EVQLVESGGGLVKPGGSLKLSCAASGYTFTSYVMHWVRQAPGKGLEWIGYINPYNDGTKYNEKFQGRVTISSDKSISTAYMELSSLRSEDTAMYYCARGTYYYGTRVFDYWGQGTLVTVSSASTKGPSVFPLAPSSKSTSGGTAALGCLVKDYFPEPVTVSWNSGALTSGVHTFPAVLQSSGLYSLSSVVTVPSSSLGTQTYICNVNHKPSNTKVDKKVEPKSCDKTHTCPPCPAPELLGGPDVFLFPPKPKDTLMISRTPEVTCVVVDVSHEDPEVQFNWYVDGVEVHNAKTKPREEQFNSTFRVVSVLTVVHQDWLNGKEYKCKVSNKALPAPEEKTISKTKGQPREPQVYTLPPSREEMTKNQVSLTCLVKGFYPSDIAVEWESNGQPENNYKTTPPMLDSDGSFFLYSKLTVDKSRWQQGNVFSCSVMHEALHNHYTQKSLSLSPG light: DIVMTQSPATLSLSPGERATLSCRSSKSLQNVNGNTYLYWFQQKPGQSPQLLIYRMSNLNSGVPDRFSGSGSGTEFTLTISSLEPEDFAVYYCMQHLEYPITFGAGTKLEIKRTVAAPSVFIFPPSDEQLKSGTASVVCLLNNFYPREAKVQWKVDNALQSGNSQESVTEQDSKDSTYSLSSTLTLSKADYEKHKVYACEVTHQGLSSPVTKSFNRGEC | 15.3 nM | 62.1 nM | 4.19 nM | 1.34 nM | 99.4 nM | 39.1 nM | < 0.02 nM | 121 nM | 176 nM | 234 nM | 231 nM | 203 nM | 88.9 nM | 5.6 nM | 49.5 nM | Kd (recombinant human CD19): 1.4 nM; Kd [5]: 76.2 nM; Kd [6]: 53 nM; EC50 [7]: 57 nM; EC50 (human CD19 on cells): 1 nM; Kd [8]: 1800 nM; Kd [20]: 181 nM; Kd [21]: 152 nM
Rituximab (antibody) VH: not shown VL: QIVLSQSPAILSASPGEKVTMTCRASSSVSYIHWFQQKPGSSPKPWIYATSNLASGVPVRFSGSGSGTSYSLTISRVEAEDAATYYCQQWTSNPPTFGGGTKLEIKRTVAAPSVFIFPPSDEQLKSGTASVVCLLNNFYPREAKVQWKVDNALQSGNSQESVTEQDSKDSTYSLSSTLTLSKADYEKHKVYACEVTHQGLSSPVTKSFNRGEC | 1520 nM | 4320 nM | 309 nM | 130 nM | 8880 nM | 635 nM | 0.0547 nM | 1530 nM | 4090 nM | 6680 nM | 1740 nM | 2330 nM | 595 nM | 11.3 nM | 425 nM | Kd [22]: 0.46 nM; EC50 [23]: 0.61 nM; Kd [24]: 1.1 nM; Kd (CD20 Lipoparticles): < 0.001 nM; Kd [25]: 1530 nM; Kd [26]: 1520 nM; Kd [27]: 892 nM; Kd [28]: 1250 nM; Kd [29]: 715 nM; Kd [30]: 52.8 nM
